PMC6212398, “Competing protein-protein interactions regulate binding of Hsp27 to its client protein tau” (Nature Communications, 2018)

Columns and labels:
[1] = target: Hsp27 GPG (isoleucine and valine of the IPV motif mutated to glycine) (human) (UniProt P04792); experiment: ITC; peptide (1 mM) titrated into a cell with Hsp27 proteins (100 µM); SEC buffer (50 mM sodium phosphate, 100 mM NaCl); 25 °C; one-site binding model
Hsp27 ΔNTD GPG (human) = Hsp27 ΔNTD GPG (human) (UniProt P04792); experiment: as above

Kd [1]: 10 µM | stoichiometry N [1]: 0.2 | Kd (Hsp27 ΔNTD GPG (human)): 14.3 µM
Binder: EITIPVTHE [Hsp27 IPV H peptide (…)]
